Reference: PMC3035472

Target: sigma A (primary sigma factor), wild type, refolded from inclusion bodies (Bacillus subtilis, UniProt P06224 1-371)
Test: EMSA

Chain of sigma A (primary sigma factor), wild type, refolded from inclusion bodies (P06224 whole entry): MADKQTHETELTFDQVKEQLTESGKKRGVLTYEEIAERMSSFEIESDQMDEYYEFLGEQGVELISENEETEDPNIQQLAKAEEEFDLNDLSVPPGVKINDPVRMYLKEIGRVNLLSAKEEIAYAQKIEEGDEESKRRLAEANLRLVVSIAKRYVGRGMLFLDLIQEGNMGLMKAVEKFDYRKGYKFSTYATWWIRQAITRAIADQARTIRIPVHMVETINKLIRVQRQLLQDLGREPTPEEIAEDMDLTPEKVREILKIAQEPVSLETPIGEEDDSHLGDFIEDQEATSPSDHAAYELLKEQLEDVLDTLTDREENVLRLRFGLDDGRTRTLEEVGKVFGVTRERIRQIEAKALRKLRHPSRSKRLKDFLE

B1: tgbp3 cDNA fragment (non-promoter) (dsDNA)
DNA 1: AGACTACCATGGCTCTAAACACTGACACACTATGCATCATTCTGTTCATACTAATATTAGGCATCCTATATAATATACTTCAACAGCATCTGCCCCCACCATGTGAAATAATAATAAACGGGCACACTATATCCATTAGGGGCAACTGCTACCACACCACCTCCAGCCTCGAGCACCAC
DNA 2: GTGGTGCTCGAGGCTGGAGGTGGTGTGGTAGCAGTTGCCCCTAATGGATATAGTGTGCCCGTTTATTATTATTTCACATGGTGGGGGCAGATGCTGTTGAAGTATATTATATAGGATGCCTAATATTAGTATGAACAGAATGATGCATAGTGTGTCAGTGTTTAGAGCCATGGTAGTCT
binding result: binds
